From patent publication US20040256230A1, “Microfluidic devices for transverse electrophoresis and isoelectric focusing” (University of Washington, priority 1999, published 2004)
Several values for one entry are separate records, joined by “and”; a condition that tells them apart may be missing. Identical values can stand only once.

Legend:
[1] = stated, literature or standard value; cited from earlier work
[2] = Isoelectric point by polyacrylamide gel isoelectric focusing, compared with positions of standards; format: physicochemical; conditions: constant voltage, mini IEF cell
Experimental: The isoelectric points (pI) of proteins were determined experimentally by polyacrylamide gel isoelectric focusing, using the procedure specified by BiORad Laboratories, Inc. (Hercules, Calif.). A mini IEF cell (Model 111) purchased from BiORad equipped by two graphite electrodes was employed for this purpose. Focusing was carried out under constant voltage conditions (Power Pac 1000, BiORad).
(§1) Isoelectric points of proteins were determined by comparison with positions of standards.

[3] = Stability of the fluorescence of the BSA conjugate over a broad range of pH values; format: physicochemical; conditions: pH 2.5 to 10.0, 1.52 μM, excitation 495 nm, every 30 minutes for 4.5 hours
Experimental: as §1
The fluorescence of the BSA-Bodipy FL conjugate is reported to be insensitive to pH between 4 and 8. […] A fluorescence spectrum from 500-550 nm for an excitation wavelength of 495.0±2.5 nm was recorded for each of the solutions immediately after its preparation and then after each 30 minutes for 4.5 hours.

[4] = Isoelectric focusing in the microchannel (microfluidic IEF), position of the focused zone; format: physicochemical; conditions: 0.1 mM histidine buffer, initial pH 7.1, 2.5V for 6 minutes
Experimental: Bovine hemoglobin (Hb) was selected as a test case because of its strong absorbance at 550 nm (facilitating observation without need for additional dyes). The pI of Hb is 7.1, as verified by polyacrylamide gel isoelectric focusing run at the same concentration as was used for IEF in the microchannel. […] A voltage of 2.5V (resulting in a current of 5 μA) was applied for 6 minutes. Two zones of higher optical density close to the electrodes were formed within 15 s. They moved towards each other meeting to form one dark zone after 5 minutes. Even with a relatively high concentration of Hb (1.55×10^−4 M), the darker zones and their migration were barely visible in color images. Normalized plots of green pixel values vs. position allowed monitoring of Hb migration. The position of the final focused zone of Hb in the microchannel corresponded to a pH of 7.1±0.3 on the basis of previous results with acid-base indicators under similar conditions (FIG. 8). The pI value determined by IEF in the microchannel was within experimental error, identical to that in the literature and that determined by our gel IEF experiment.

Molecule | isoelectric point (pI) [1] | pI determined by polyacrylamide gel isoelectric focusing [2] | change of fluorescence over time [3] | pH corresponding to the position of the final focused zone in the microchannel [4]
N[C@@H](Cc1c[nH]cn1)C(=O)O [histidine] | 7.4 |  |  | 
BSA conjugate: fluorescent bovine serum albumin (BSA)—Bodipy FL conjugate (Molecular Probes) |  | 4.6±0.1 and 4.65 | did not significantly change | 
Bovine hemoglobin: bovine hemoglobin (Sigma), test analyte for isoelectric focusing | 7.1 | 7.1 |  | 7.1±0.3
human hemoglobin A: pI standard in gel isoelectric focusing | 7.1 |  |  | 
phycocyanin | 4.65 |  |  | 
